The text below walks through data of PMC4775432 (2015).

This assay has as its target T1, KRAS G12D peptide on HLA-A*11:01 (human).
T1 peptide: VVGADGVGK
The assay is described as follows: cytokine release.

B1: TRAV4-4*01/BV12-2*01 (TCR)
alpha TRAV4-4/DV10*01 49*01 CDR3: CAADSSNTGYQNFYF
beta TRBV12-2*01 1-2*01 CDR3: CASSLTDPLDSDYTF
For the molecule B1, the binding result is recorded as “no recognition”.
